Experimental data taken from article PMC10771490, “The structure of a tetrameric septin complex reveals a hydrophobic element essential for NC-interface integrity” (Communications Biology, 2024).

T1: Shs1_(G21-S339) (Saccharomyces cerevisiae, UniProt Q07657 21-339)
T1 construct: Shs1, septin of Saccharomyces cerevisiae, residues G21-S339 (unstructured extensions removed); The complex was purified on a HisTrap column; source: E. coli BL21DE3, coexpressed with the other subunits, purified (HisTrap IMAC, anion exchange, SEC)
T1 sequence (looked up): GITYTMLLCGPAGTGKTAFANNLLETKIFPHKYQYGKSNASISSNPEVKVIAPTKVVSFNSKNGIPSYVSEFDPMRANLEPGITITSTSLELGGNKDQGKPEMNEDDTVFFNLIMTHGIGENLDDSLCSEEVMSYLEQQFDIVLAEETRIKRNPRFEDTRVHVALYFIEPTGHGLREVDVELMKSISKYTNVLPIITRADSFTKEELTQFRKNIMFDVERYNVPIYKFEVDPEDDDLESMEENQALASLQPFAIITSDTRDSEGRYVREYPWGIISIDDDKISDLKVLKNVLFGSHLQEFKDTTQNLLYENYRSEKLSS

T2: Cdc3_(Q81-A410) (Saccharomyces cerevisiae, UniProt P32457 81-410)
T2 construct: Cdc3, septin of Saccharomyces cerevisiae, residues Q81-A410 (extensions removed); source: E. coli BL21DE3, coexpressed with the other subunits, purified (HisTrap IMAC, anion exchange, SEC)
T2 sequence (looked up): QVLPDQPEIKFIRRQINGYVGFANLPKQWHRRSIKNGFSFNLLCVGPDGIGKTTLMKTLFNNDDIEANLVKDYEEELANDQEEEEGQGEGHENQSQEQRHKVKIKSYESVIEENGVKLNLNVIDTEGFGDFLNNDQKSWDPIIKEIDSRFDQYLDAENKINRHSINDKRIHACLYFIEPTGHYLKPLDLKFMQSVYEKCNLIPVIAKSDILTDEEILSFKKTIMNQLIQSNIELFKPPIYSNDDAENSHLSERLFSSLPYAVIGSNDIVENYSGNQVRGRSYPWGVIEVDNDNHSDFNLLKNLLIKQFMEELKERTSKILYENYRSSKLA


Assays:
[1] = biological target: T1, Shs1_(G21-S339); test: crystal structure; coexpressed tetrameric complex loaded with GTP before crystallization; sitting-drop vapor diffusion, 20% PEG 5000, 300 mM ammoniumsulfate, 100 mM Bis-Tris pH 6.5, 20 °C; 3.24 Å, space group C 1 2 1, a tetramer in the asymmetric unit; settings: both partners purified
[2] = biological target: T2, Cdc3_(Q81-A410); test: as above; settings: both partners purified
[3] = biological target: the molecule itself; test: SEC; analytical SEC of yeast septin complexes purified by IMAC and IEX; Superose 6, 25 mM Tris pH 8.0, 300 mM NaCl; elution compared with tetramer and octamer references
[4] = biological target: the molecule itself; test: cross-linking; engineered cysteine pairs across the Cdc10-Cdc10 NC-interface; complexes expressed in E. coli T7-SHuffle Express, purified by IMAC in non-reducing buffers, SDS-PAGE with and without β-Mercaptoethanol, Western blot against the S-tag on Cdc10
[5] = biological target: T2, Cdc3_(Q81-A410); test: SEC; analytical SEC of yeast septin complexes purified by IMAC and IEX; Superose 6, 25 mM Tris pH 8.0, 300 mM NaCl; elution compared with tetramer and octamer references; settings: both partners purified

| Binder | binding result [3] | binding result [4] | other results |
| --- | --- | --- | --- |
| Cdc12_(M1-G314) (domain or fragment, Saccharomyces cerevisiae, UniProt P32468 1-314, looked up, Cdc12, septin of Saccharomyces cerevisiae, residues M1-G314 (C-terminal extension removed); source: E. coli BL21DE3, coexpressed with the other subunits, purified (HisTrap IMAC, anion exchange, SEC)) MSAATATAAPVPPPVGISNLPNQRYKIVNEEGGTFTVMLCGESGLGKTTFINTLFQTVLKRADGQQHRQEPIRKTVEIDITRALLEEKHFELRVNVIDTPGFGDNVNNNKAWQPLVDFIDDQHDSYMRQEQQPYRTKKFDLRVHAVLYFIRPTGHGLKPIDIETMKRLSTRANLIPVIAKADTLTAQELQQFKSRIRQVIEAQEIRIFTPPLDADSKEDAKSGSNPDSAAVEHARQLIEAMPFAIVGSEKKFDNGQGTQVVARKYPWGLVEIENDSHCDFRKLRALLLRTYLLDLISTTQEMHYETYRRLRLEG |  |  | binding result [1]: binds; binding result [2]: binds |
| Cdc10_(L27A) (natural protein, Saccharomyces cerevisiae, UniProt P25342 1-322, looked up, Cdc10, septin of Saccharomyces cerevisiae, hydrophobic crest mutant (position 15 of the motif); Compared with the wildtype octamer; source: E. coli BL21DE3, co-expressed as septin complex, purified (IMAC, IEX)) MDPLSSVQPASYVGFDTITNQIEHRLAKKGFQFNIMVVGQSGLGKSTLINTLFASHLIDSATGDDISALPVTKTTEMKISTHTLVEDRVRLNINVIDTPGFGDFIDNSKAWEPIVKYIKEQHSQYLRKELTAQRERFITDTRVHAILYFLQPNGKELSRLDVEALKRLTEIANVIPVIGKSDTLTLDERTEFRELIQNEFEKYNFKIYPYDSEELTDEELELNRSVRSIIPFAVVGSENEIEINGETFRGRKTRWSAINVEDINQCDFVYLREFLIRTHLQDLIETTSYIHYEGFRARQLIALKENANSRSSAHMSSNAIQR | binds |  |  |
| Cdc10 L26A (natural protein, Saccharomyces cerevisiae, UniProt P25342 1-322, looked up, Cdc10, septin of Saccharomyces cerevisiae, mutant of the non-conserved position 14 of the hydrophobic crest motif; Compared with the wildtype octamer; source: E. coli BL21DE3, co-expressed as septin complex, purified (IMAC, IEX)) MDPLSSVQPASYVGFDTITNQIEHRALKKGFQFNIMVVGQSGLGKSTLINTLFASHLIDSATGDDISALPVTKTTEMKISTHTLVEDRVRLNINVIDTPGFGDFIDNSKAWEPIVKYIKEQHSQYLRKELTAQRERFITDTRVHAILYFLQPNGKELSRLDVEALKRLTEIANVIPVIGKSDTLTLDERTEFRELIQNEFEKYNFKIYPYDSEELTDEELELNRSVRSIIPFAVVGSENEIEINGETFRGRKTRWSAINVEDINQCDFVYLREFLIRTHLQDLIETTSYIHYEGFRARQLIALKENANSRSSAHMSSNAIQR | binds |  |  |
| Cdc10 T19C/E23C (disulfide bridge mutant) (natural protein, Saccharomyces cerevisiae, UniProt P25342 1-322, looked up, Cdc10, septin of Saccharomyces cerevisiae, native, non-truncated, with two cysteines for a disulfide between the two α0-helices; also called T19C and E23C; source: E. coli T7-SHuffle Express, co-expressed with the other full-length subunits, purified (IMAC, non-reducing buffers)) MDPLSSVQPASYVGFDTICNQICHRLLKKGFQFNIMVVGQSGLGKSTLINTLFASHLIDSATGDDISALPVTKTTEMKISTHTLVEDRVRLNINVIDTPGFGDFIDNSKAWEPIVKYIKEQHSQYLRKELTAQRERFITDTRVHAILYFLQPNGKELSRLDVEALKRLTEIANVIPVIGKSDTLTLDERTEFRELIQNEFEKYNFKIYPYDSEELTDEELELNRSVRSIIPFAVVGSENEIEINGETFRGRKTRWSAINVEDINQCDFVYLREFLIRTHLQDLIETTSYIHYEGFRARQLIALKENANSRSSAHMSSNAIQR |  | binds |  |
| Cdc10 Q21C/Q281C (disulfide bridge mutant) (natural protein, Saccharomyces cerevisiae, UniProt P25342 1-322, looked up, source: E. coli T7-SHuffle Express, co-expressed with the other full-length subunits, purified (IMAC, non-reducing buffers)) MDPLSSVQPASYVGFDTITNCIEHRLLKKGFQFNIMVVGQSGLGKSTLINTLFASHLIDSATGDDISALPVTKTTEMKISTHTLVEDRVRLNINVIDTPGFGDFIDNSKAWEPIVKYIKEQHSQYLRKELTAQRERFITDTRVHAILYFLQPNGKELSRLDVEALKRLTEIANVIPVIGKSDTLTLDERTEFRELIQNEFEKYNFKIYPYDSEELTDEELELNRSVRSIIPFAVVGSENEIEINGETFRGRKTRWSAINVEDINQCDFVYLREFLIRTHLCDLIETTSYIHYEGFRARQLIALKENANSRSSAHMSSNAIQR |  | binds |  |
| Cdc10 A132C/L300C (disulfide bridge mutant) (natural protein, Saccharomyces cerevisiae, UniProt P25342 1-322, looked up, also called Cdc10^A_(A132)-Cdc10^B_(L300); source: E. coli T7-SHuffle Express, co-expressed with the other full-length subunits, purified (IMAC, non-reducing buffers)) MDPLSSVQPASYVGFDTITNQIEHRLLKKGFQFNIMVVGQSGLGKSTLINTLFASHLIDSATGDDISALPVTKTTEMKISTHTLVEDRVRLNINVIDTPGFGDFIDNSKAWEPIVKYIKEQHSQYLRKELTCQRERFITDTRVHAILYFLQPNGKELSRLDVEALKRLTEIANVIPVIGKSDTLTLDERTEFRELIQNEFEKYNFKIYPYDSEELTDEELELNRSVRSIIPFAVVGSENEIEINGETFRGRKTRWSAINVEDINQCDFVYLREFLIRTHLQDLIETTSYIHYEGFRARQCIALKENANSRSSAHMSSNAIQR |  | binds |  |
| Cdc10 L27A in the disulfide bridge mutant A132C/L300C (natural protein, Saccharomyces cerevisiae, UniProt P25342 1-322, looked up, Cdc10, septin of Saccharomyces cerevisiae, disulfide bridge mutant A132C/L300C with L27A; also called L27A (disulfide mutant); source: E. coli T7-SHuffle Express, co-expressed with the other full-length subunits, purified (IMAC, non-reducing buffers)) MDPLSSVQPASYVGFDTITNQIEHRLAKKGFQFNIMVVGQSGLGKSTLINTLFASHLIDSATGDDISALPVTKTTEMKISTHTLVEDRVRLNINVIDTPGFGDFIDNSKAWEPIVKYIKEQHSQYLRKELTCQRERFITDTRVHAILYFLQPNGKELSRLDVEALKRLTEIANVIPVIGKSDTLTLDERTEFRELIQNEFEKYNFKIYPYDSEELTDEELELNRSVRSIIPFAVVGSENEIEINGETFRGRKTRWSAINVEDINQCDFVYLREFLIRTHLQDLIETTSYIHYEGFRARQCIALKENANSRSSAHMSSNAIQR |  | binds |  |
| Cdc10 L26A in the disulfide bridge mutant A132C/L300C (natural protein, Saccharomyces cerevisiae, UniProt P25342 1-322, looked up, Cdc10, septin of Saccharomyces cerevisiae, disulfide bridge mutant A132C/L300C with L26A; also called L26A (disulfide mutant); source: E. coli T7-SHuffle Express, co-expressed with the other full-length subunits, purified (IMAC, non-reducing buffers)) MDPLSSVQPASYVGFDTITNQIEHRALKKGFQFNIMVVGQSGLGKSTLINTLFASHLIDSATGDDISALPVTKTTEMKISTHTLVEDRVRLNINVIDTPGFGDFIDNSKAWEPIVKYIKEQHSQYLRKELTCQRERFITDTRVHAILYFLQPNGKELSRLDVEALKRLTEIANVIPVIGKSDTLTLDERTEFRELIQNEFEKYNFKIYPYDSEELTDEELELNRSVRSIIPFAVVGSENEIEINGETFRGRKTRWSAINVEDINQCDFVYLREFLIRTHLQDLIETTSYIHYEGFRARQCIALKENANSRSSAHMSSNAIQR |  | binds |  |
| Cdc10_(G30-R322) (domain or fragment, Saccharomyces cerevisiae, UniProt P25342 30-322, looked up, Cdc10, septin of Saccharomyces cerevisiae, residues G30-R322 (lacks the α0-helix); also called Cdc10 lacking the α0-helix; Cdc10 of the truncated tetramer; source: E. coli BL21DE3, coexpressed with the other subunits, purified (HisTrap IMAC, anion exchange, SEC)) GFQFNIMVVGQSGLGKSTLINTLFASHLIDSATGDDISALPVTKTTEMKISTHTLVEDRVRLNINVIDTPGFGDFIDNSKAWEPIVKYIKEQHSQYLRKELTAQRERFITDTRVHAILYFLQPNGKELSRLDVEALKRLTEIANVIPVIGKSDTLTLDERTEFRELIQNEFEKYNFKIYPYDSEELTDEELELNRSVRSIIPFAVVGSENEIEINGETFRGRKTRWSAINVEDINQCDFVYLREFLIRTHLQDLIETTSYIHYEGFRARQLIALKENANSRSSAHMSSNAIQR |  |  | binding result [2]: binds |
| Cdc10_(M1-R322) (natural protein, Saccharomyces cerevisiae, UniProt P25342 1-322, looked up, Cdc10, septin of Saccharomyces cerevisiae, residues M1-R322; kept apart from m6 because it stood with truncated partner subunits; also called Cdc10 with the α0-helix added, in the otherwise truncated complex; source: E. coli BL21DE3, coexpressed with Shs1_(G21-S339), Cdc12_(M1-G314) and Cdc3_(Q81-A410), purified (IMAC, IEX)) MDPLSSVQPASYVGFDTITNQIEHRLLKKGFQFNIMVVGQSGLGKSTLINTLFASHLIDSATGDDISALPVTKTTEMKISTHTLVEDRVRLNINVIDTPGFGDFIDNSKAWEPIVKYIKEQHSQYLRKELTAQRERFITDTRVHAILYFLQPNGKELSRLDVEALKRLTEIANVIPVIGKSDTLTLDERTEFRELIQNEFEKYNFKIYPYDSEELTDEELELNRSVRSIIPFAVVGSENEIEINGETFRGRKTRWSAINVEDINQCDFVYLREFLIRTHLQDLIETTSYIHYEGFRARQLIALKENANSRSSAHMSSNAIQR | binds |  | binding result [5]: binds |
| Cdc10, native, non-truncated (wild type) (natural protein, Saccharomyces cerevisiae, UniProt P25342 1-322, looked up, Cdc10, septin of Saccharomyces cerevisiae, native, non-truncated; An S-tag is named on Cdc10 only for the Western blots of the disulfide mutants; also called Cdc10 of the untruncated octamer; source: E. coli BL21DE3, co-expressed with the other full-length subunits, purified (IMAC, IEX)) MDPLSSVQPASYVGFDTITNQIEHRLLKKGFQFNIMVVGQSGLGKSTLINTLFASHLIDSATGDDISALPVTKTTEMKISTHTLVEDRVRLNINVIDTPGFGDFIDNSKAWEPIVKYIKEQHSQYLRKELTAQRERFITDTRVHAILYFLQPNGKELSRLDVEALKRLTEIANVIPVIGKSDTLTLDERTEFRELIQNEFEKYNFKIYPYDSEELTDEELELNRSVRSIIPFAVVGSENEIEINGETFRGRKTRWSAINVEDINQCDFVYLREFLIRTHLQDLIETTSYIHYEGFRARQLIALKENANSRSSAHMSSNAIQR | binds |  |  |
